Results: paper PMC5706989 (Molecular Biology of the Cell, 2017)

Key:
[1] = target: the molecule itself; assay: two-colour scanning fluorescence
[2] = target: the molecule itself; assay: two-colour scanning fluorescence; remark: listed apart in the source
[3] = target: the molecule itself; assay: one-colour scanning fluorescence correlation spectroscopy
[4] = target: the molecule itself; assay: two-colour scanning fluorescence; remark: listed apart in the source
[5] = target: the molecule itself; assay: one-colour scanning fluorescence correlation spectroscopy; remark: listed apart in the source
[6] = target: the molecule itself; assay: two-colour scanning fluorescence; remark: listed apart in the source

B1: APLP1–yellow fluorescent protein (APLP1-YFP) (natural protein, UniProt P51693 39-650, looked up)
chain: SLAGGSPGAAEAPGSAQVAGLCGRLTLHRDLRTGRWEPDPQRSRRCLRDPQRVLEYCRQMYPELQIARVEQATQAIPMERWCGGSRSGSCAHPHHQVVPFRCLPGEFVSEALLVPEGCRFLHQERMDQCESSTRRHQEAQEACSSQGLILHGSGMLLPCGSDRFRGVEYVCCPPPGTPDPSGTAVGDPSTRSWPPGSRVEGAEDEEEEESFPQPVDDYFVEPPQAEEEEETVPPPSSHTLAVVGKVTPTPRPTDGVDIYFGMPGEISEHEGFLRAKMDLEERRMRQINEVMREWAMADNQSKNLPKADRQALNEHFQSILQTLEEQVSGERQRLVETHATRVIALINDQRRAALEGFLAALQADPPQAERVLLALRRYLRAEQKEQRHTLRHYQHVAAVDPEKAQQMRFQVHTHLQVIEERVNQSLGLLDQNPHLAQELRPQIQELLHSEHLGPSELEAPAPGGSSEDKGGLQPPDSKDDTPMTLPKGSTEQDAASPEKEKMNPLEQYERKVNASVPRGFPFHSSEIQRDELAPAGTGVSREAVSGLLIMGAGGGSLIVLSMLLLRRKKPYGAISHGVVEVDPMLTLEEQQLRELQRHGYENPTYRFLEERP
[1]
  stoichiometry N: 6
[2]
  stoichiometry N: 21
[3]
  stoichiometry N: 1.9
[4]
  stoichiometry N: 1.8
[5]
  stoichiometry N: 2
[6]
  stoichiometry N: 3
